From article PMC3269570 (European Biophysics Journal, 2011)

Molecular target: the molecule itself
Test: cross-linking

B1: N-terminal transmembrane domain of Fukutin-I (FK1TMD), unlabelled peptide (peptide)
peptide: MQRINKNVVLALLTLTSSAFLLFQLYYYKHYLSARN
stoichiometry N: 2
